Test results: patent US20250084176A1

Molecular target: mouse CD137, full length, on cells (mouse) (UniProt P20334)
Test: cell-based or functional assay

Sequence of mouse CD137, full length, on cells (mouse) (P20334 24-256): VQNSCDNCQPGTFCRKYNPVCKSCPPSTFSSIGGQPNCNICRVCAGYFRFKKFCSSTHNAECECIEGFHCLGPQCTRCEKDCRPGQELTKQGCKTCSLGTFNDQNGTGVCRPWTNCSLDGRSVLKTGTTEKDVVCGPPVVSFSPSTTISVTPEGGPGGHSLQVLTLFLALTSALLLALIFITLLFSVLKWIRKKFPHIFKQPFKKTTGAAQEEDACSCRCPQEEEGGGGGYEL

Question: Which IL-2 release, mouse CD137 DO11.10 T cell activation assay, Protein L: +XL EC50 does the source give for G1-AA/Lob12.3 (antibody) here?
Answer: 2.26 nM

Question: What about the IL-2 release, mouse CD137 DO11.10 T cell activation assay, Protein L: +XL Emax of the same substance?
Answer: 21300 pg/mL
